Measured values taken from patent US20020127541A1 (GOVERNING COUNCIL OF THE UNIVERSITY OF TORONTO, published 2002).

T1: endogenous calnexin (UniProt P27824 21-592)
T1 construct: Endogenous endoplasmic reticulum protein used as a control
T1 sequence (looked up): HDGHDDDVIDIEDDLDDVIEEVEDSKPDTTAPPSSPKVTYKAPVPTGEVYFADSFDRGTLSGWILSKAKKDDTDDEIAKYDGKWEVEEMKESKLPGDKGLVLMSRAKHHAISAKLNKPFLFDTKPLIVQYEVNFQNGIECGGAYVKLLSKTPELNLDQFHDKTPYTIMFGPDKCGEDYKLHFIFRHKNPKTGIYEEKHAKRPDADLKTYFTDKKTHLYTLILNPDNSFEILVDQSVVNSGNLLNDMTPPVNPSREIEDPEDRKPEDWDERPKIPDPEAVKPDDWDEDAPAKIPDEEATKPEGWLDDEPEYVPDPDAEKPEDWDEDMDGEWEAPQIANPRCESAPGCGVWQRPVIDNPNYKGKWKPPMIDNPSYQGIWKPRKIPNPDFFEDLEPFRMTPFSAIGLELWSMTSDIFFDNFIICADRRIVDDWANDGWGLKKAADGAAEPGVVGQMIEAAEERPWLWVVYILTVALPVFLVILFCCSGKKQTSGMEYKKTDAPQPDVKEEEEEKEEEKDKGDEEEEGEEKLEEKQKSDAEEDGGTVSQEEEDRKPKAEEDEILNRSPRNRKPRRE


Assays:
endogenous calnexin = target: T1, endogenous calnexin; experiment: co-immunoprecipitation
[1] = target: wild type PS1 (wtPS1) holoprotein (human, UniProt P49768 1-467); experiment: co-immunoprecipitation with anti-PS1 loop or N-terminus antibodies, Western blot
Method: Co-immunoprecipitation and glycerol velocity gradient fractionation were performed as previously described in Yu et al., 1998, J.Biol.Chem. 273:16470-16475. Immunoprecipitations were performed on cell lysates 48 hours after transient transfections. Total proteins (2 mg/ml) were extracted from cultured cells or brain tissue using a lysis buffer (0.2% NP-40, 0.5% Triton X-100, 50 mM Tris-HCl [pH7.6], 150 mM NaCl, 2 mM EDTA, 2 mM PMSF, […] each of aprotinin, leupeptin, pepstatin). […] New York, Cold Spring Harbor Laboratory Press. Protein A Sepharose was subsequently added to the antibody-antigen complex and incubated for 2 hours at 4° C. The beads were washed four times with a washing buffer (0.2% NP-40, 50 mM Tris-HCl[pH7.6], 150 mM NaCl, 2 mM EDTA). IP products were resolved by SDS-PAGE and investigated for the co-immunoprecipitated partners with the corresponding antibody and detection with ECL (Amersham). […]
Western blots of anti-PS 1 immunoprecipitates from PS1 transfected HEK293 cells were examined for the presence of other arm proteins expressed endogenously in HEK293 cells. Endogenous β-catenin, but not endogenous α-catenin, γ-catenin, or calnexin were detected in Western blots of immunoprecipitation products from HEK293 cells stably transfected with PS1, using either antibodies to PS1 cytoplasmic loop or to the PS1 N-terminus.

binding result (endogenous calnexin)	binding result [1]	Binder
no binding	–	Myc-tagged hNPRAP528-1084 (other, human, Transiently expressed in HEK293 cells; also called myc-hNPRAP) ALKMPIIQDALAVLTNAVIIPHSGWENSPLQDDRKIQLHSSQVLRNATGCLRNVSSAGEEARRRMRECDGLTDALLYVIQSALGSSEIDSKTVENCVCILRNLSYRLAAETSQGQHMGTDELDGLLCGEANGKDAESSGCWGKKKKKKKSQDQWDGVGPLPDCAEPPKGIQMLWHPSIVKPYLTLLSECSNPDTLEGAAGALQNLAAGSWKWSVYIRAAVRKEKGLPILVELLRIDNDRVVCAVATALRNMALDVRNKELIGKYAMRDLVHRLPGGNNSNNTASKAMSDDTVTAVCCTLHEVITKNMENAKALRDAGGIEKLVGISKSKGDKHSPKVVKAASQVLNSMWQYRDLRSLYKKDGWSQYHFVASSSTIERDRQRPYSSSRTPSISPVRVSPNNRSASAPASPREMISLKERKTDYECTGSNATYHGGKGEHTSRKDAMTAQNTGISTLYRNSYGAPAEDIKHNQVSAQPVPQEPSRKDYETYQPFQNSTRNYDESFFEDQVHHRPPASEYTMHLGLKSTGNYVDFYSAARPYSELNYETSHYPASPDSWV
–	no binding	endogenous α-catenin (other, Endogenous protein of HEK293 cell lysates) TAVHAGNINFKWDPKSLEIRTLAVERLLEPLVTQVTTLVNTNSKGPSNKKRGRSKKAHVLAASVEQATENFLEKGDKIAKESQFLKEELVAAVEDVRKQGDLMKAAAGEFADDPCSSVKRGNMVRAARALLSAVTRLLILADMADVYKLLVQLKVVEDGILKLRNAGNEQDLGIQYKALKPEVDKLNIMAAKRQQELKDVGHRDQMAAARGILQKNVPILYTASQACLQHPDVAAYKANRDLIYKQLQQAVTGISNAAQATASDDASQHQGGGGGELAYALNNFDKQIIVDPLSFSEERFRPSLEERLESIISGAALMADSSCTRDDRRERIVAECNAVRQALQDLLSEYMGNAGRKERSDALNSAIDKMTKKTRDLRRQLRKAVMDHVSDSFLETNVPLLVLIEAAKNGNEKEVKEYAQVFREHANKLIEVANLACSISNNEEGVKLVRMSASQLEALCPQVINAALALAAKPQSKLAQENMDLFKEQWEKQVRVLTDAVDDITSIDDFLAVSENHILEDVNKCVIALQEKDVDGLDRTAGAIRGRAARVIHVVTSEMDNYEPGVYTEKVLEATKLLSNTVMPRFTEQVEAAVEALSSDPAQPMDENEFIDASRLVYDGIRDIRKAVLMIRTPEELDDSDFETEDFDVRSRTSVQTEDDQLIAGQSARAIMAQLPQEQKAKIAEQVASFQEEKSKLDAEVSKWDDSGNDIIVLAKQMCMIMMEMTDFTRGKGPLKNTSDVISAAKKIAEAGSRMDKLGRTIADHCPDSACKQDLLAYLQRIALYCHQLNICSKVKAEVQNLGGELVVSGVDSAMSLIQAAKNLMNAVVQTVKASYVASTKYQKSQGMASLNLPAVSWKMKAPEKKPLVKREKQDETQTKIKRASQKKHVNPVQALSEFKAMDSI
